Stoichiometry N data for one substance are collected here from paper PMC5714288.

This test concerns the target pyruvate kinase isoform M2 (PKM2) (human (endogenous in U1 and U937)) (UniProt P14618). Nature of the test: native gel or EMSA. Background: Mobility shift assays separate free from complexed probe on a gel.

pyruvate kinase isoform M2 (PKM2), P14618 1-531 (natural protein; other documents disagree on this pair), sequence (P14618 whole entry, canonical isoform): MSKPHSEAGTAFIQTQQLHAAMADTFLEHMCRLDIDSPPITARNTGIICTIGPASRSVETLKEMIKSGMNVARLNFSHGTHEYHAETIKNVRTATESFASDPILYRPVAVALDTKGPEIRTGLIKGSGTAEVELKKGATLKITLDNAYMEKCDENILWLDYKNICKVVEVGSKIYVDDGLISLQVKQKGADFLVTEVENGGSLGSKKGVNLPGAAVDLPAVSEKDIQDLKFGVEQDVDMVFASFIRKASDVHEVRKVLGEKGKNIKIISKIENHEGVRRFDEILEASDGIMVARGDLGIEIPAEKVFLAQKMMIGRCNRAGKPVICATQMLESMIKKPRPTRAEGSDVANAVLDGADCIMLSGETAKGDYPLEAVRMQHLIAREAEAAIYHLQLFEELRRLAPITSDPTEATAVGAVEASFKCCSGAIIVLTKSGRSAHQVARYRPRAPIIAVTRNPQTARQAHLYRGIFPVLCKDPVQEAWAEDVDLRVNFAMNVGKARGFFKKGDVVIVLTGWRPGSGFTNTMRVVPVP

For “pyruvate kinase isoform M2 (PKM2), P14618 1-531 (natural protein; other documents disagree on this pair)”, the stoichiometry N turned out to be 2.

Broadly, the stoichiometry N is the number of molecules, sites or subunits per partner or assembly.
